{
  "source": "paper PMC3526273",
  "about": "“A SUMO-interacting motif activates budding yeast ubiquitin ligase Rad18 towards SUMO-modified PCNA” (Nucleic Acids Research, 2012)",
  "binders": {"B1": {"name": "HisRad18(1-255) (domain or fragment, S. cerevisiae, UniProt P10862 1-255, looked up)", "chain": "MDHQITTASDFTTTSIPSLYQLDTLLRCHICKDFLKVPVLTPCGHTFCSLCIRTHLNNQPNCPLCLFEFRESLLRSEFLVSEIIQSYTSLRSSLLDALRIPKPTPVPENEEVPGPENSSWIELISESESDSVNAADDDLQIVATSERKLAKRSMTDILPLSSKPSKRNFAMFRSERIKKKSKPNEQMAQCPICQQFYPLKALEKTHLDECLTLQSLGKKPKISTTFPTESNPHNKSSSRFKVRTPEVDKSSCGET", "notes": "detected by anti-His western blot; not shown: His6, N-terminal, kept"}, "B2": {"name": "HisRad18(1-255) SIM* (L139A, I141A, V142A) (domain or fragment, S. cerevisiae, UniProt P10862 1-255, looked up)", "chain": "B1 chain with L139A, I141A, V142A", "notes": "also called SIM* mutant; not shown: His6, N-terminal, kept"}},
  "biological_target": "T1, GSTPCNA (S. cerevisiae, UniProt P15873 1-258)",
  "T1 construct": "PCNA of S. cerevisiae; not shown: GST, N-terminal, kept",
  "T1 sequence (looked up)": "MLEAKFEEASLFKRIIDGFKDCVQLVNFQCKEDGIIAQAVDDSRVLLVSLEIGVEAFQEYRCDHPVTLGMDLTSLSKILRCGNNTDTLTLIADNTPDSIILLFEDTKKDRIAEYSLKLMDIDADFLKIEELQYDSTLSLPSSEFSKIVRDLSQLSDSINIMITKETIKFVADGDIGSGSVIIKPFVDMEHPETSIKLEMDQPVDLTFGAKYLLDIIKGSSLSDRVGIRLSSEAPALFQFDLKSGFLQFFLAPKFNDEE",
  "test": "pull-down; GST-tagged protein immobilised on glutathione Sepharose (1 h, 4°C), binding partner added for 90 min at 4°C in phosphate-buffered saline with 0.05% Triton X-100; three washes; anti-His western blot",
  "details": "both partners purified",
  "note": "Where a chain is given by its changes, count along the chain named. In names and notes the source's numbering stands.",
  "data": [
    {"binder": "B1", "values": [
      {"measurement": "binding result", "value": "binds"}
    ]},
    {"binder": "B2", "values": [
      {"measurement": "binding result", "value": "binds"}
    ]}
  ]
}
